Test results: patent US20230203156A1 (published 2023)
Each block holds one binder with its values, some of them ahead of it.

What was measured:
cynomolgus CD47 = target: T1, cynomolgus CD47 (cynomolgus, UniProt A0A5F8AK49 19-323); assay: FACS binding, C6-cKT14 cells
T1 chain: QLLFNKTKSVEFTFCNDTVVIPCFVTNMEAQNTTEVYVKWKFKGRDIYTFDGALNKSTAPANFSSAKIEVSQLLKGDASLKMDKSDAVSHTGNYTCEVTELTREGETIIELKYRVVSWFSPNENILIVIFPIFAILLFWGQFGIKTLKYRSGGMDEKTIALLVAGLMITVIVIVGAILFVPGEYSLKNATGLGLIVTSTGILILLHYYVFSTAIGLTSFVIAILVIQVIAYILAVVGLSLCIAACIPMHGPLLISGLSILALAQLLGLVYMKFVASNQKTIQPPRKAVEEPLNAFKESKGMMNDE

human CD47 = human CD47 (human, UniProt Q08722 19-323); assay: FACS binding, C6-hKT14 cells
[1] = target: cynomolgus MDR1 (Macaca fascicularis); assay: FACS binding, 293T-cB1 cells
cynomolgus MDR1 (Macaca fascicularis), sequence (chain, as listed by the source): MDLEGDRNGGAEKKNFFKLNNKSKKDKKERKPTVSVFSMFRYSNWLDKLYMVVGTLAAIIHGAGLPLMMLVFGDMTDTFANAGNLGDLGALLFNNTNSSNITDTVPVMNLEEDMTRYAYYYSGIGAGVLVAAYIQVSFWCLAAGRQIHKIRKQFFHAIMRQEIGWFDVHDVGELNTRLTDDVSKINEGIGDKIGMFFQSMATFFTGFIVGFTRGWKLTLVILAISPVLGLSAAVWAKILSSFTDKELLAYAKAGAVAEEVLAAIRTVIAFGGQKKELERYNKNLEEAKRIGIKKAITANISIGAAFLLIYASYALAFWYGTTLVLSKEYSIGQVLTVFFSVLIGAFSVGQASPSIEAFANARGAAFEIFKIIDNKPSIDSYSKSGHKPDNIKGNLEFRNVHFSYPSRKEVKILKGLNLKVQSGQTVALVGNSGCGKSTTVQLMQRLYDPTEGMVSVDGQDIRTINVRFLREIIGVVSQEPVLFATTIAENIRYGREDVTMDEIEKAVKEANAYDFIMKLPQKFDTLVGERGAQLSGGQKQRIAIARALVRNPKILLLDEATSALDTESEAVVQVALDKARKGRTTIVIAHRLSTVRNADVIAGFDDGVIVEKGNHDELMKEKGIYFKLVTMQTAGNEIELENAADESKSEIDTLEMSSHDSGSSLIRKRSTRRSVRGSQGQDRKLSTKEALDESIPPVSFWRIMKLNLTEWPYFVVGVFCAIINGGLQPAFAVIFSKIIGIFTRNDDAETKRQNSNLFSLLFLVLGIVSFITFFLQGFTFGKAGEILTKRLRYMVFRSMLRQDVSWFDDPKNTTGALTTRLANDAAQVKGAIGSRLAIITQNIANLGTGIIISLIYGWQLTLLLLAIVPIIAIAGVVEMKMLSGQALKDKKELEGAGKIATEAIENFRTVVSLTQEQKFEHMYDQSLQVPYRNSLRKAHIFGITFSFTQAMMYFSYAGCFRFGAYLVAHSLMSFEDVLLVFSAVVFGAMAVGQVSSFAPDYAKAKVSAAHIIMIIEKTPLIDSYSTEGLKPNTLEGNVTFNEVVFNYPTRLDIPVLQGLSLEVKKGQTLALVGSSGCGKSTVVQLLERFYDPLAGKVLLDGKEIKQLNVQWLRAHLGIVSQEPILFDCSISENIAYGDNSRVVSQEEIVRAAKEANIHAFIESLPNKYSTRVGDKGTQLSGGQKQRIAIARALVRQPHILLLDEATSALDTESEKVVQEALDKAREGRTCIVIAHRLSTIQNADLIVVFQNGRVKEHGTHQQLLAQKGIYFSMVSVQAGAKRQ

[2] = target: T2, human MDR1 (multidrug resistance protein 1) (UniProt P08183 1-1280); assay: FACS binding, 293T cells expressing human MDR1
[3] = target: T2, human MDR1 (multidrug resistance …); assay: FACS binding, 293T-hB1 cells

EC50 (cynomolgus CD47): 83 nM
EC50 (human CD47): 40 nM
B1: B1.28DD/KT14KK/28 (antibody)
chain 1: EVKLVESGGGLVKPGGSLKLSCAASGFTFGLYTMSWVRQTPERRLEWVATISSGGSNTYYPDSVKGRFTISRDNAKNNLFLQMNSLRSEDTALYYCARYYRYDAWFAYWGQGTLVTVSS
chain 2: QVQLVQSGAEVKKPGASVKVSCKASGYTFTNYNMHWVRQAPGQRLEWMGTIYPGNDDTSYNQKFKDRVTITADTSASTAYMELSSLRSEDTAVYYCARGGYRAMDYWGQGTLVTVSS
chain 3: DVLLTQTPLSLPVSLGDQASISCRSSQNIVHSTGNTYLDWYLQKPGQSPKLLIYKVSNRFSGVPDRFSGSGSGTDFTLKISRVEAEDLGVYFCFQGSHIPRTFGGGTKLEIK

Kd [1]: 97 nM
EC50 [2]: 4.8 nM
Kd [3]: 17 nM
B2: B1.28 (antibody, V domains shown)
VH: B1 chain 1
VL: B1 chain 3
